Results on nine molecules are retold here after patent US20190185530A1 (WESTFAELISCHE WILHELMS UNIVERSITAET MUENSTER, published 2019).

Changes are numbered by the printed parent chain. Names may count otherwise.

To fix the notation:
T1: human S100A9 protein of Uniprot accession no. P06702 (recombinant, wild type) (human, UniProt P06702 2-114)
T1 construct: Recombinant; also called recS100A9; S100A9 wt
T1 sequence: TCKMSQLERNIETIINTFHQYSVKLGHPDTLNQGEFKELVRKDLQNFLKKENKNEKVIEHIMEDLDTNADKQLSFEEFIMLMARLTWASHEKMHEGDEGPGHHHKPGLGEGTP

B1: wild type human S100A12 protein (recombinant), single chain (other)
chain: TKLEEHLEGIVNIFHQYSVRKGHFDTLSKGELKQLLTKELANTIKNIKDKAVIDEIFQGLDANQDEQVDFQEFISLVAIALKAAHYHTHKE
notes: also called recS100A12 wt; wtS100A12
B2: S100A9 (N69A+E78A), mutant of human S100A9 having a double Asn69→Ala and Glu78→Ala substitution (other)
chain: T1 sequence with N68A, E77A
B3: S100A9 (N69A), mutant of human S100A9 having a single Asn69→Ala substitution (other)
chain: T1 sequence with N68A
B4: S100A9 (E78A), mutant of human S100A9 having a single Glu78→Ala substitution (other)
chain: T1 sequence with E77A
B5: human S100A8 protein of Uniprot accession no. P05109 (recombinant) (other)
chain: LTELEKALNSIIDVYHKYSLIKGNFHAVYRDDLKKLLETECPQYIRKKGADVWFKELDINTDGAVNFQEFLILVIKMGVAAHKKSHEESHKE
notes: Recombinant; also called recS100A8
B6: recS100A8/S100A9(N69A+E78A) mutant heterodimer (other)
chain 1: B5 chain
chain 2: T1 sequence with N68A, E77A
notes: Heterodimer tested for association with itself into a tetramer
B7: recS100A8/S100A9(E78A) mutant heterodimer (other)
chain 1: B5 chain
chain 2: T1 sequence with E77A
notes: as for B6
B8: recS100A8/S100A9 wt heterodimer (other)
chain 1: B5 chain
chain 2: T1 sequence
notes: This heterodimer is the unit that joins with a second one to form the (S100A8/S100A9)2 tetramer when calcium is present; also called recS100A8/S100A9 wt complexes; wt S100A8/S100A9
B9: recS100A8/S100A9(N69A) mutant heterodimer (other)
chain 1: B5 chain
chain 2: T1 sequence with N68A
notes: Heterodimer tested for association with itself into a tetramer; also called recS100A8/S100A9(N69A) mutant complexes

Series [1] deals with the molecule itself. As to the kind of experiment: glycerol centrifugation with EGTA, Bradford assay of fractions (homodimer). How it is done:
FIG. 8: Glycerol centrifugation of S100A12 proteins. Wild type (wt) and mutant recS100A12 complexes were loaded on a 15% glycerol solution in the presence of either EGTA or Ca²⁺ or Zn²⁺ or Ca²⁺/Zn²⁺. Buffer conditions were 20 mM HEPES, 140 mM NaCl, pH 7.4. After centrifugation, successive fractions of the gradients were analyzed by the colorimetric assay Bradford. […] Addition of calcium or zinc alone induced no shift for wtS100A12 to higher glycerol fractions. Addition of calcium plus zinc induced a marked shift for wtS100A12 to higher glycerol fractions, whereas for the mutant complex recS100A12(E73A) no shift was observed. FIG. 8A: Protein concentrations of collected fractions determined by Bradford assay. Sample A: S100A12 wild type+2 mM EGTA, sample B S100A12 wild type+5 mM CaCl₂, sample C: S100A12 wild type+1 mM Zn, sample D S100A12 wild type+200 μM Zn, sample E: S100A12 wild type+5 mM CaCl₂+200 μM Zn, sample F: S100A12 wild type+2.5 mM CaCl₂+100 μM Zn FIG. 8B: Summary of collected and analysed fractions of wtS100A12 (see FIG. 8A) in the presence or absence of bivalent cations as indicated in the figure. FIG. 8C Summary of collected and analysed fractions of wtS100A12 and recS100A12E73A mutant in the presence (5 mM CaCl₂+200 μM Zn, 2.5 mM CaCl₂+100 μM Zn) or absence (2 mM EGTA) of bivalent cations as indicated in the figure.

Series [2] deals with B5. As to the kind of experiment: ESI-MS, native conditions.
The target of series [3] is B5. The experiment in a line: glycerol density gradient centrifugation with EGTA, SDS-PAGE of fractions. The procedure:
(§1) FIG. 7: Density gradient centrifugation of S100A8/S100A9 proteins. wt and mutant recS100A8/S100A9 complexes were loaded on a glycerol gradient in the presence of either 1 mM EGTA or 100 μM Ca2+. After centrifugation, successive fractions of the gradients were analyzed by SDS-PAGE. […] Addition of calcium induced a marked shift for recS100A8/S100A9 wt to higher glycerol densities, whereas for the mutant complexes recS100A8/S100A9(N69A) and recS100A8/S100A9(E78A) no shift was observed.

Series [4] concerns the target T1, human S100A9 protein of Uniprot …. As to the kind of experiment: MALDI-MS, native conditions, without calcium. The text has this: (§2) FIG. 5: MALDI mass spectra in the absence and presence of calcium under native solvent conditions. (a) MALDI mass spectra of recS100A8/S100A9 wt complexes in the absence (left) and presence (right) of calcium using 2,6-dihydroxy-acetophenone as matrix. The mass spectra between m/z 20,000 and 100,000 together with an inset between m/z 46,000 and 50,000 are shown. T⁺, singly charged; T²⁺, doubly charged; T³⁺, triply charged tetramer. (b) MALDI mass spectra of recS100A8/S100A9(N69A) mutant complexes in the absence (left) and presence (right) of calcium.
S100A8 and S100A9 exist as heterodimers in the absence of calcium, and these heterodimeric complexes associate to (S100A8/S100A9)₂ tetramers upon calcium-binding. […] In the absence of calcium, samples show intense signals of singly charged heterodimers. […] Other prominent signals are detected at molecular masses of around 24 kDa and 16 kDa, representing doubly charged (T2+) or triply charged (T3+) tetramers in accordance with results reported earlier for the native proteins purified from human granulocytes. The number of Ca2+ bound to the tetramers was calculated from the difference between the observed masses of the tetramers and the sum of the calculated theoretical molecular masses of the monomeric components.

Series [5] deals with the molecule itself. As to the kind of experiment: MALDI-MS, native conditions, with calcium (heterodimer to heterodimer).
Source text: as §2

Series [6] deals with the molecule itself. As to the kind of experiment: glycerol density gradient centrifugation with calcium, SDS-PAGE of fractions (heterodimer to heterodimer). How it is done:
as §1

Consider B1, for which the binding result in series [1] is recorded as “binds”.

Turning to B2, the binding result in series [2] was “binds”.

Regarding B3, the binding result in series [3] was “binds”.

In the case of B4, the binding result in series [3] is listed as “binds”.

B5: in series [4], the binding result is recorded as “binds”.

B6: in series [5], the binding result is “no binding”.

For B7, the binding result in series [5] was “no binding”.

As for B8, in series [6], the binding result is listed as “binds”.

For the molecule B9, the binding result in series [5] is recorded as “no binding”.
